According to US20180327506A1 (AbbVie / Abbott, published 2018):
Like-named read-outs stand apart in the source and are kept apart here. One block for each binder: values may come before it.

Columns and labels:
[1] = target: T1, full-length mature human EMR2 (residues Q24-N823) with N-terminal aspartic acid/lysine epitope tag, … (human, UniProt Q9UHX3 24-823); assay: flow cytometry on transduced HEK293T; 293 naive MFI 99.5
T1 construct: Built from NM_013447; The IgK signal peptide is not part of the mature protein; also called hEMR2; hEMR2-NFlag
T1 sequence: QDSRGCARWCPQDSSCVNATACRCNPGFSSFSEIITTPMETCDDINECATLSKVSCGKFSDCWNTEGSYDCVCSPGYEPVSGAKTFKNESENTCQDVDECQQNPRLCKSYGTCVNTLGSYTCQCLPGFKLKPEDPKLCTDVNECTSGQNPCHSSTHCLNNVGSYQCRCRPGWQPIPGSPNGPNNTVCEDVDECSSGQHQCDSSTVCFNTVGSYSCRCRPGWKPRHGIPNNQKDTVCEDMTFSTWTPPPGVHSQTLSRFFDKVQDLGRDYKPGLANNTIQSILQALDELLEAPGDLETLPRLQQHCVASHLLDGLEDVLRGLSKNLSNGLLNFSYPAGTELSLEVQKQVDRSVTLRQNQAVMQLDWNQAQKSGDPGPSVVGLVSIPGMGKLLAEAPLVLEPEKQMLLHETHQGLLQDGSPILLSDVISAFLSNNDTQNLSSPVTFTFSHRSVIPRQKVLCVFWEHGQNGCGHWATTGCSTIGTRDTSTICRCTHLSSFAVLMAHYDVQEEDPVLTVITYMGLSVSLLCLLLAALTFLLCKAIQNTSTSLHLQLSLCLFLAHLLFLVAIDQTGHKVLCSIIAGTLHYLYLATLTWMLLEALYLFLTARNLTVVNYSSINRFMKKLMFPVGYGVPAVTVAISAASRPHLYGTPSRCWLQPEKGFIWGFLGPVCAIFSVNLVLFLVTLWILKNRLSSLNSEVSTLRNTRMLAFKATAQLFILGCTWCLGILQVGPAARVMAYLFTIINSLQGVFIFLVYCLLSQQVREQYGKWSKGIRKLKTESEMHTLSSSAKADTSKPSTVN
Protocol: (§1) The exemplary antibodies were also tested using flow cytometry to determine their ability to associate with hEMR2, cEMR2 and CD97 expressed on the surface of cells.

[2] = target: T2, full-length mature cynomolgus EMR2 (residues Q24-N816) with N-terminal aspartic acid/lysine epitope tag, … (cynomolgus monkey (Macaca fascicularis), UniProt A0A2K5WL23 21-816); assay: as above
T2 construct: whole, on cells; also called cEMR2; cEMR2-NFlag
T2 sequence: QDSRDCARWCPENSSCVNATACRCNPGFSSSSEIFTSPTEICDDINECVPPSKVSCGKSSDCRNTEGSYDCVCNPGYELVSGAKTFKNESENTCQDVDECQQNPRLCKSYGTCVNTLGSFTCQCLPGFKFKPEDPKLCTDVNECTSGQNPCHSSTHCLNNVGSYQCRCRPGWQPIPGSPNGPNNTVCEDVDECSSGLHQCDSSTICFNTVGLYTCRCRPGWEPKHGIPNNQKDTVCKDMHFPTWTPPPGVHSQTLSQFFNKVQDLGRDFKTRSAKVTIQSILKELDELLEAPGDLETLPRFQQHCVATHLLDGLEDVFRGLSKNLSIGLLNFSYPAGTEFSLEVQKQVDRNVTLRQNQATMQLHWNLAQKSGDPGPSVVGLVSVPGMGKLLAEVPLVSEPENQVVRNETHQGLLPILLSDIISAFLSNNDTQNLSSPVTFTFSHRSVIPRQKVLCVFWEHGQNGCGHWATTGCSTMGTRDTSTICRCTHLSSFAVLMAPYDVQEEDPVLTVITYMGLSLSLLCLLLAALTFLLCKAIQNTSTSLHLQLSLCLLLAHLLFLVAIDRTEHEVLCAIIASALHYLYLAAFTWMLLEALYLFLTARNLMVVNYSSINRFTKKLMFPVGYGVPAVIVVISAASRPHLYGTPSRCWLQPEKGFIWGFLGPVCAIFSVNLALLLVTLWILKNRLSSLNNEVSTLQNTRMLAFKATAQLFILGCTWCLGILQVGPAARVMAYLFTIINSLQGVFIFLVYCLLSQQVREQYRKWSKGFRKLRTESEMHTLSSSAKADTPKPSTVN
Protocol: as §1

[3] = target: T3, full-length mature human CD97 (residues Q21-I845) with N-terminal aspartic acid/lysine epitope tag, … (human, UniProt P48960 21-835); assay: as above
T3 construct: whole, on cells; also called hCD97; hCD97-NFlag
T3 sequence (looked up): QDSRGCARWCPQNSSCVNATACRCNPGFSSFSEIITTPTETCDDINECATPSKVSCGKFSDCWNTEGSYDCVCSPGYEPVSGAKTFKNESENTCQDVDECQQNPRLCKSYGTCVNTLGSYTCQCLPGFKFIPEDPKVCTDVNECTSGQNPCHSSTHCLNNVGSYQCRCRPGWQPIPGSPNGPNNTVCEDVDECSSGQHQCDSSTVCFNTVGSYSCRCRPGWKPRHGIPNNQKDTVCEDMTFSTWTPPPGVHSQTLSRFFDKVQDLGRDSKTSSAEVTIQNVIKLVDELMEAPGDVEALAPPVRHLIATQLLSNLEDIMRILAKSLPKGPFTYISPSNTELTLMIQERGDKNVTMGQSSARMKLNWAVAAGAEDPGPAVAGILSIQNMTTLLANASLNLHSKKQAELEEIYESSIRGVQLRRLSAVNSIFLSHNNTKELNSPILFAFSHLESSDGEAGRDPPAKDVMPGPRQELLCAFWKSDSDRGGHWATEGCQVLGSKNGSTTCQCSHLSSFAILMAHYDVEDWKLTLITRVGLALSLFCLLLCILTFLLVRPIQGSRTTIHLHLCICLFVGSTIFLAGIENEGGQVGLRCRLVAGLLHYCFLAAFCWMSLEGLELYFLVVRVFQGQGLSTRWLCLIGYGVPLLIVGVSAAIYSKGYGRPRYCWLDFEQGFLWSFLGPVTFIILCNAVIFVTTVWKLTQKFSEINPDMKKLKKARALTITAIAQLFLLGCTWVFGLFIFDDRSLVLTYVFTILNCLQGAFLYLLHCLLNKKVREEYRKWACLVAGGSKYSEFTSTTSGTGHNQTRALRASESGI
Protocol: as §1

[4] = target: T1, full-length mature human EMR2 (residues …); assay: cell-based or functional assay
[5] = target: T2, full-length mature cynomolgus EMR2 …; assay: cell-based or functional assay
[6] = target: T3, full-length mature human CD97 (residues …); assay: cell-based or functional assay
[7] = target: T1, full-length mature human EMR2 (residues …); assay: flow cytometry on transduced HEK293T; 293 naive MFI 97.8
Protocol: as §1

[8] = target: T2, full-length mature cynomolgus EMR2 …; assay: as above
Protocol: as §1

[9] = target: T3, full-length mature human CD97 (residues …); assay: as above
Protocol: as §1

[10] = target: T1, full-length mature human EMR2 (residues …); assay: cell-based or functional assay; remark: listed apart in the source
[11] = target: T3, full-length mature human CD97 (residues …); assay: cell-based or functional assay; remark: listed apart in the source
[12] = target: T1, full-length mature human EMR2 (residues …); assay: flow cytometry on transduced HEK293T; 293 naive MFI 326
Protocol: as §1

[13] = target: T2, full-length mature cynomolgus EMR2 …; assay: as above
Protocol: as §1

[14] = target: T3, full-length mature human CD97 (residues …); assay: as above
Protocol: as §1

[15] = target: T1, full-length mature human EMR2 (residues …); assay: flow cytometry on transduced HEK293T; 293 naive MFI 97.1
Protocol: as §1

[16] = target: T2, full-length mature cynomolgus EMR2 …; assay: as above
Protocol: as §1

[17] = target: T3, full-length mature human CD97 (residues …); assay: as above
Protocol: as §1

FC MFI [1]: 38300 | FC MFI [2]: 48700 | FC MFI [3]: 328
B1: SC93.253 (antibody, V domains shown)
VH: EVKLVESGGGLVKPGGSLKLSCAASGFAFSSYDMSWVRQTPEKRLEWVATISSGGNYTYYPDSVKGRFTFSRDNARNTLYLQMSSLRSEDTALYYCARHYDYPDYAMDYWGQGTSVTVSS
VL: DIVMTQSQKFMSTSVGDRIIITCKASQNVRTTVDWYQQKPGQSPKVLISLASNRHTGVPDRFTGSGSGTDFTLTISNVQSEDLADYFCLQHRNYPLTFGGGTKLEIK
notes: Murine hybridoma antibody with a kappa light chain
% live, FAB-saporin killing assay [4]: 13.4% | % live, FAB-saporin killing assay [5]: 11.1% | % live, FAB-saporin killing assay [6]: 92.2%

FC MFI [7]: 71100 | FC MFI [8]: 76700 | FC MFI [9]: 925
B2: SC93.239 (antibody, V domains shown)
VH: LVQLQQSGVELARPGASVKLSCKASGYIFTSYGISWVKQRTGQGLEWIGNIYPRTGNTYYNEKFKDKATLTADKSSNTAYMELRSLTSEDSAVYFCARGTHYDPLDYWGQGTTLTVSS
VL: ENVLTQSPAIMSASPGEKVTMTCRASSSVSSSDLHWYQQKSGASPKLWIYSTSNLASGVPARFSGSGSGASCSLTISSVEAEDAATYYCHQYSGYPWTFGGGTKLEIK
notes: Murine hybridoma antibody with a kappa light chain; also called clone SC93.239; SC93.239 (Bin A)
% live, FAB-saporin killing assay [4]: 16.8% | % live, FAB-saporin killing assay [5]: 16.7% | % live, FAB-saporin killing assay [6]: 106%

B3: SC93.15 (antibody, IgG1, V domains shown)
VH: EVQLQQSGPELVKPGASVKISCKGSGYTFTDYFMNWVKLSHGKSLEWIGEINPNNGGTNYNQKFKGKATLTVDKSSSIAYMELRSLTSEDSAVYYCARPGTNYWGPGTTLTVSS
VL: DIVMTQSHKFMSTSVGDRVSITCKASQNVGTSVAWYQQKPGHSPKLLIYWASTRHTGVPDRFTGSGSGTDFSLTISSVQSEDLTDYFCQQYSSYPLTFGGGTKLEIK
% live, FAB-saporin killing assay [10]: 15% | % live, FAB-saporin killing assay [11]: 99.5%

B4: SC93.216 (antibody, IgG1, V domains shown)
VH: EVQLVESGGGLVKPGGSLKLSCAASGFTFSSYGMSWVRQTPEKRLEWVAAIHSNGDITYYPDTVKGRFTISRDNAKNTLYLQMSSLTSEDTALYYCANLAYWGQGTLVTVSA
VL: EIQMTQSPSSMSASLGDRITITCQATQDIVKNLNWYQQKPGKSPSSLIYYATELAEGVPSRFSGSGSGSDYSLTISNLESEDFADYYCLQFYEFPLTFGAGTKLELK
% live, FAB-saporin killing assay [10]: 102% | % live, FAB-saporin killing assay [11]: 107%

FC MFI [12]: 40500 | FC MFI [13]: 45200 | FC MFI [14]: 43800
B5: SC93.252 (antibody, IgG2a, V domains shown)
VH: QVQLQQSDAELVKPGASVKISCKVSGFSFTDHTIHWMRQRPEQGLEWIGYIYPTDGNTRYNEKFKGKASLTADKSSTTAYMQLSSLTSEDSAVYFCAKRGYYWYFDVWGTGTTVTVSS
VL: DIQMTQASSYLSVSLGGRVTITCKASDHINNWLAWYQQKPGNAPRLLISHATNLETGFPSRFSGSGSGKDYTLSITSLQTEDVATYYCQQYWNIPYTFGGGTKLEIE
notes: murine, IgG2a
% live, FAB-saporin killing assay [4]: 10.8% | % live, FAB-saporin killing assay [5]: 9.42% | % live, FAB-saporin killing assay [6]: 9.09%

FC MFI [15]: 42700 | FC MFI [16]: 65800 | FC MFI [17]: 8140
B6: SC93.243 (antibody, IgG2b, V domains shown)
VH: QVQLQQSGAELMKPGASVKISCKATGYTFSSYWIEWVKQRPGHGLEWIGEILPGSGRTNYNERLKGKATFTADTSSNTAYMQLSSLTSEDSAVYYCARPYFYGSNFDFWGQGTTLTVSS
VL: DIVMTQSHKFMSTSVGDRVSITCKASQDVGTAVAWYQQKPGQSPKLLIYWASTRHTGVPDRFTGSGSGTDFTLTISNVQSEDLADYFCQQYSSYHTFGGGTKLEIK
notes: murine, IgG2b
% live, FAB-saporin killing assay [4]: 68.7% | % live, FAB-saporin killing assay [5]: 20.8% | % live, FAB-saporin killing assay [6]: 91.9%
